Data as given in the nanobody polyreactivity screen of Harvey et al. (2022).

Test: yeast display, Sf9 membrane polyspecificity reagent, FACS + sequencing; frameworks hold sequencing errors
How it was run: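 Nanobodies from a synthetic yeast display library (Saccharomyces cerevisiae BJ5465), induced 36–48 hours with galactose, were stained 1 hour at 4 °C with 10% biotinylated, detergent-solubilized Sf9 membrane reagent, enriched on streptavidin microbeads, then FACS-sorted. Anti-HA (expression) and streptavidin (reagent binding) fluorescence set low and high (top ~1%) gates. Polyreactivity labels come from the gate of origin. Genes were colony-PCR amplified, MiSeq 2 × 250 sequenced and filtered by CDR length.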

Row | Sequence | polyreactivity (PSR sort gate)
1 | QVQLVESGGGLVQAGGSHRLSCAASGFIFYVYAMGWYRQAPGKERELVATINGRRSRTYYADSVKGRFTISRDNAKNTVYLQMNSLKPEDTAVYYCAAVAWVLRYGRGDYWGQGTQVTVSL | high polyreactivity
2 | QVQLVESGGGLVQAGGSHRLSCAASGFTFDFYAMGWYRQAPGKERELVAAISKNDGTTYYADSVKGRFTISRDNAKNTVYLLLNRLKPEDSAVYYCAAESGYPVYTYVSSGDYWGQGTQVTGSS | low polyreactivity
3 | QVQLVESGGGLVQAGGSHRLSCAASGFTFGYYVMGWYRQAPGKERELVAAISKRGSSTYYADCVKGRFTISRDNANTTVYLQMNSLKPVDTAVYYCAADGVYSHKDGHWGQGTQVTVSS | high polyreactivity
4 | QVQLVESGGGLVQAGGSHRLSCAASGFTFRRNAMGWYRQAPGKERELVAAISWSGGSTYYADSVKGRFTISRDNAKNTVYLQMNSLKPEDTAVYYCAAYDYRHLEDKYDYWGQGTQVTVSS | high polyreactivity
5 | QVQLVESGGGLVQAGGSHRLSCAASGFTFSAYTMGWYRQAPGKERELVAAISWRGTSTYYADSVKGRFTISRDNAKNTVYLQMNSLKPEDTAVYYCAVRWPSARIPVKLDYWGQGTQVNVSS | high polyreactivity
6 | QVQLVESGGGLVQAGGSHRLSCAASGFTLRYYSMGRNRPATGKERELVAPISFRGVRTYYADSVKGRFTISRDNAKNTVYLQMNSLKPEDTAVYYCAAASRRGVLYPSLPVLPDDYWGQGTQVTVSS | high polyreactivity
7 | QVQLVESGGGLVQAGGSHRLSCAASGGILETNAMGWYRQAPGKERELVAAIDFSAGSTYYADSVKGRFTISRDNAKNTVYLQMNSLKPEDTAVYYCAAESQGPKDDYLWGWHIYYYWGQGSQVTVSS | low polyreactivity
8 | QVQLVESGGGLVQAGGSHRLSCAASGGTFNSNAMGWYRQAPGKERELVASITWRGGTYYADSVKGRFTISRDNAKNTVYLQMNSLKPEDTAVYYCAARGTIPGIHWIYYYWGQGTQVTVSS | high polyreactivity
9 | QVQLVESGGGLVQAGGSHRLSCAASGIIFWYNAMGWYRQAPGKERELVAAISRGGGNTYADSVKGRFTISRDNAKNTVYLQMKSLKPEDTAVYYCAAKRSGYRFNTRWFRLPKYDYWGQGTQVTVSS | low polyreactivity
10 | QVQLVESGGGLVQAGGSHRLSCAASGIIFYDNTMGWYRQAPGKERELVASITWRGGSTYYADSVKGRFTISRDNAKNTFYLQMNSLKPEDTAVYYCNADSSDDYDYWGQGTQVTVSS | low polyreactivity
11 | QVQLVESGGGLVQAGGSHRLSCAASGIIFYRNAMGWYRQAPGKEREFVAAISSSGTNTYYADSVKGRFTISRDNAKITVYLQMNSLKPEDTAVYYCNADPDDGYFSDFDYWGQGTQVTVSS | low polyreactivity
12 | QVQLVESGGGLVQAGGSHRLSCAASGIIIRYYAMGWYRQAPGKERDLVAAISGGGSTYYADSVKGRFTISRDNAKNTVYLQMNRLKPEDTAVYYCAAAGRWYYHGYNYWGQGTQVTVSS | high polyreactivity
13 | QVQLVESGGGLVQAGGSHRLSCAASGITFAFNTMGWYRQAPGKERELVAAISYSGGRTYYADSVKGRFTISRDNAKNTVYLQMNSLKPEDTAVYYCNTRYRGSYDYWGQATQVTVSS | high polyreactivity
14 | QVQLVESGGGLVQAGGSHRLSCAASGITFGSYVMGWYRQAPGKERELVAAISRSGGRTYYADSVKGRFTISRDNAKNTVYLQMNSLKPEDTAVYYCAARYDSGNYVYWGQGTQLTVSS | high polyreactivity
15 | QVQLVESGGGLVQAGGSHRLSCAASGITFSTYAKGGYRQAPGKERELVAAITKSGGSTYYADSVKGRFTISRDTAKNTVYLQMNSLKPEDTAVYYCAAEGDWRGSALYNYWGLGTQVTVSS | low polyreactivity
16 | QVQLVESGGGLVQAGGSHRLSCAASGLILGINAKGWYRQAPGTERELVAAISSSGGRTSYADSVKGRFTISRDNGKNTVYLQMNSLNPEDTAVYYCAKRRTTYSHYDYWGHGTQVTVSS | low polyreactivity
17 | QVQLVESGGGLVQAGGSHRLSCAASGLTFSKYAMGWYRQAPGKERELVAAIRRSGGSTYYADSVKGRFTISRDNAKNTVYLQMNSLKPEDTAVYYCAADNYRYWNILRDYWGQGTQVTVSS | low polyreactivity
18 | QVQLVESGGGLVQAGGSHRLSCAASGRIFKINAMGCYRQAPVKERELVAGISGSGSDTYYADSVKGRFTISRDNSKNTVYLQMNSLKPEDTAVYYCAATVVQYYDRDYWGQGTQVTVSS | low polyreactivity
19 | QVQLVESGGGLVQAGGSHRLSCAASGRIFVIYAMGWNRQAPGKERELVALITRGSSTYADSVKGRFTISRDNAKNTVYLQMYSLKPEDTAVYYCAARRYVTVDYDYWGQGTQVTVSS | high polyreactivity
20 | QVQLVESGGGLVQAGGSHRLSCAASGRILPGYAMGWYRPAPGKERELVAAITTGGSTYYADSVKGRFTISRDNAKNTVYLQMNSLKPEDTAVYYCAKLYSYVGWGGQFDYWGQGTQVTVSS | low polyreactivity
21 | QVQLVESGGGLVQAGGSHRLSCAASGRILYRNVMGWYRQAHGKERELVAGISFTGGSTYYADSVKRRFTISRDNAKNTVYLQMNSLKPEDTAVYYCAATYSSYWARYYYWGQGTPVTVSS | high polyreactivity
22 | QVQLVESGGGLVQAGGSHRLSCAASGRTFANYAMGWYRQAPGKERELVAAITSGGRTYYADSVKGRFTISRDNAKNTVYLQMNSLKPEDSAVYYCAADYTYDYQNDYWGQGTQVTVSS | high polyreactivity

Row | Sequence | polyreactivity (PSR sort gate)
23 | QVQLVESGGGLVQAGGSHRLSCAASGSIFHRYAMGWYRQAPGKERELVAGITWSGDSTYYADSVKGRFTISRDNAKNTVYLEMNSLKPEDTGVYYCAKRAPRHYKGVPAAWFGYWGQGTQVTVSS | low polyreactivity
24 | QVQLVESGGGLVQAGGSHRLSCAASGSIFKRNAMRSYRQAPGKERELVAAISRSGGSTYYADSVKGRFTISRDFAKNTVYLQMNSLKPEDTAVYYCDARRKLGYGSENDYWGQGTQVTVSS | high polyreactivity
25 | QVQLVESGGGLVQAGGSHRLSCAASGSIFRGYAMGWNRHAPRKERELVASITWSSGSTYYADSVKGRFTISRDNAKITVYLQMNSLKPEDTAVYDCAADVEYWSYEFNYWGQGTQVTVSS | low polyreactivity
26 | QVQLVESGGGLVQAGGSHRLSCAASGSIFRSNTMGWYRQAPGKERELVAAITWRRGSTYYADSVKGRFTISRDNAKNTVYLQMNSLKPEDTAVYDCNALYVSRDDYWGQGTQVTVSS | high polyreactivity
27 | QVQLVESGGGLVQAGGSHRLSCAASGSIFSWYAMGWYRQAPGKVRELVAAITWTRGSTYYADSVKGRFTISRDTANNTVYLQMKSLKPDDSAVYYCAARRVVYRYYWYSAYVYWGQGTQVTVSS | high polyreactivity
28 | QVQLVESGGGLVQAGGSHRLSCAASGSIFTRNVMGWYRQAPGKERELVAAITSAGSTYYADSVKGRFTISRDNAKNNVYLQMTSLNPEDTAVYNCDAKVYYPYLFTSYDYWGQGTQVTVSS | high polyreactivity
29 | QVQLVESGGGLVQAGGSHRLSCAASGSIFWSYAMGWYRQAPGKARELVASISRRGGSTSYADSVKGRFTISRDNAKNTVYLQMNSLKPEDTAVYYCNAYGRQNHYYWGQGTQVTVSS | high polyreactivity
30 | QVQLVESGGGLVQAGGSHRLSCAASGSTFEIYAMGWYRQAPGKERELVAAISSGGSTNYADSVKGRFTISRDNAKNSVYLQMNSLKPEDTAVYYCVYAIQFDYWGQGTQVTVSS | low polyreactivity
31 | QVQLVESGGGLVQAGGSHRLSCAASGSTFEYYAMGWYRQAPGKERELVAAITTSGGITYYADSVKGRFTISRDNAKNTVYLQMNSLKPEDTAVYYCNADAVPFPTLVTYLYDYWGQGTQVTVSS | low polyreactivity
32 | QVQLVESGGGLVQAGGSHRLSCAASGSTFGSNAMGWYRQAPGKERELVAARTIGGSTNYADSVKGRFTISRDNAKNTVYLEMTSLKPEETAVYYCNADPQQSKLWTYFFGFPGYYWGQGTQVTVSS | low polyreactivity
33 | QVQLVESGGGLVQAGGSHRLSCAASGSTFLINAMGWYRQAPGKERELVAAISRDGSTNYADSVKGRFTISRDNAKNTVYLQMNSLKPDDTAVYYCAADEQAYYVRRFDYWGEGTQVTVSS | low polyreactivity
34 | QVQLVESGGGLVQAGGSHRLSCAASGSTFWGYTMRWYRQAPGKERELVAAITRSSGRTYYADSVKGRFTISRDNAKITVYLQMNSLKPEETAVYYCNAAAVGRRTWSPYDYWGQGTQVTVSS | high polyreactivity
35 | QVQLVESGGGLVQAGGSHRLSCAASGSTIAGNAMGWYRQAPGKERELVAVITRGGSTNYADSVKGRFTISRDNAKNTVYLQLNSLKPEDTAVYYCARYRFLLDYWGGGYYWGQGTQVTVSS | high polyreactivity
36 | QVQLVESGGGLVQAGGSHRLSCAASGYIFQWNAMGWYRQAPGKERELVATISRRGGSTYYADSVKGRFTISRDNAKNTVYLQMNSLKPEDTAVYYCNAVFGSYKDYGYWGQGTQVTVSS | low polyreactivity
37 | QVQLVESGGGLVQAGGSHRLSCAATGFTFSYYSMGWYRQAPGKERELVAAITSSAGSTYYADTVKGRFTISRDNAKNTVYLQMNSLKPEDTAVYYCNAVYSKLNGGYDYWGQGTQVTVSS | low polyreactivity
38 | QVQLVESGGGLVQAGGSHRLSCASSGRTLLAYAMGWYIQAPGKEREFVDAISSRGVRTYYADSVKGRFTISRDNANNTVYLQMNSLKPEDTAVYYCASRGTKSIKDVPGIRYGYWGQGTQVTVSS | high polyreactivity
39 | QVQLVESGGGLVQAGGSHRLSCSASGLTFSYYAMGGYRQEPGKERELVAAITRTGDRTYYADSVKGRFTISRDNAKNTVYLQMNSLKPEDTAVYYCAAKWRIVGSRQWYDYWGQGTQVTVSS | high polyreactivity
40 | QVQLVESGGGLVQAGGSHRLSCSASGSIIFYYAMGWDRQAPGKEREFVAAITRSGVRTYYADSVKGRFTISRDNAKNTVYLQMNSLKPEDTAVYYCNADYGFYRPVLMGYWGQGTQVTVSS | low polyreactivity
41 | QVQLVESGGGLVQAGGSIRLICAASGFTFSRYAMGWYRQAPGKERELVAVISSSGSRTYYADSVKGRFTISRDNAKNTVYLQMNSLKPEDTAVYYCAAKSRPRYYGTEPFDSWGQGTQVTVSS | high polyreactivity
42 | QVQLVESGGGLVQAGGSIRLSCAASGFIFRGNAMGWYRQAPGKERELVARISGSGDSTYYADSVKGRFTISRDNAKNTVYFQMNSQKPEATEVYDCNADVFPGVEAYDSTIEYYSWGQGTQVTVSS | low polyreactivity
43 | QVQLVESGGGLVQAGGSIRLSCAASGITFTLYAMGWYRQAPGKEMELVAAITISAGSTYYADSVKGRFTISRDNAKNTVYLQINSLKPEDTAVYYCAAESYGSWYYYWGQGTQVTVSS | high polyreactivity
